{"source": "paper PMC10994853", "target": "SkpA (Fjoh_1689) (Flavobacterium johnsoniae (endogenous))", "experiment": "cryo-EM structure; Extended Translocon, peak I of Twin-strep–SprA complexes from a ΔgldL background (also seen at 4.3 Å from ΔgldM peak I); assembled in vivo, in LMNG", "data": [{"substance": "SkpA (Fjoh_1689) (natural protein)", "values": [{"measurement": "stoichiometry N", "result": 3}]}]}
